Experiments:
[1] = De-esterification of the penicillin C3 benzyl ester by a number of enzymes, ester disappearance assayed by HPLC; format: biochemical; conditions: enzyme solution 0.2 ml (5 mg/ml) plus ester solution 2 ml, phosphate buffer pH 7.8, 37° C., 16 hours
Protocol: In order to determine the amount of hydrolysis of the benzyl ester of the C3 carboxyl group by a number of enzymes, the ester was subjected, in aqueous reaction mixture, to the action of the particular enzyme using the following procedure and assay procedure.
Ester solution--Ester (50 mg) was added slowly to stirred 0.25 M, pH 7.8 phosphate buffer (1 ml). When the ester was dissolved distilled water (9 ml) was added.
Enzyme solution--Enzyme (5 mg) was dissolved in distilled water (1 ml).
Enzymation--Enzyme solution (0.2 ml) was added to ester solution (2 ml) and the mixture was incubated at 37° C. for 16 hours.
Assay--When the incubation was complete, the reaction mixture was filtered through glass fibre (Whatman GF/A) and assayed for disappearance of the ester by HPLC.
Extent of conversion of ester to acid is determined as follows: [formula]
In table 1 the extent of conversion of ester to acid is shown for a number of samples of the enzyme of the present invention.

[2] = De-esterification of the benzyl ester using subtilisin A at controlled pH, ester and acid assayed by HPLC; format: biochemical; conditions: after 4 hours reaction, 37° C., pH 7.5, subtilisin A 28.16 mg
Protocol: Benzyl 6β-[2-(2-carboxy)-2-thien-3'-ylacetamido 6α-methoxy]penicillanate (0.825 g) was dissolved by adding slowly to stirred 0.25 M, pH 7.8 phosphate buffer (8 ml).
Subtilisin A (28.16 mg) was dissolved in distilled water (10 ml).
Ester solution (3 ml) was added to distilled water (7 ml) and heated to 37° C. in a stirred, water jacketed glass vessel (60 ml) and the pH adjusted to 7.5 by the addition of 1 M NaOH. Subtilisin A solution (10 ml) was heated to 37° C. and added to the ester. The mixture was stirred, the temperature maintained at 37° C. and the pH maintained at 7.5 by the addition of 0.1 M sodium hydroxide.
Samples were removed at appropriate intervals and assayed for ester and acid using the two HPLC systems described in Example 1.

B1: Alcalase 1.5 M: Subtilisin A from B licheniformis, supplier Novo (protein, UniProt P00780 106-379, looked up)
Subtilisin Carlsberg: AQTVPYGIPLIKADKVQAQGFKGANVKVAVLDTGIQASHPDLNVVGGASFVAGEAYNTDGNGHGTHVAGTVAALDNTTGVLGVAPSVSLYAVKVLNSSGSGSYSGIVSGIEWATTNGMDVINMSLGGASGSTAMKQAVDNAYAKGVVVVAAAGNSGSSGNTNTIGYPAKYDSVIAVGAVDSNSNRASFSSVGAELEVMAPGAGVYSTYPTNTYATLNGTSMASPHVAGAAALILSKHPNLSASQVRNRLSSTATYLGSSFYYGKGLINVEAAAQ
[1]
  Conversion (percentage conversion of the ester to 6[2(2-carboxy)-2-thien-3ylacetamid 6methoxy] penicillin): 88.6%

B2: Proteinase D: Proteinase D (Subtilisin A) B licheniformis, supplier ABM (protein, UniProt P00780 106-379, looked up)
Subtilisin Carlsberg: B1 Subtilisin Carlsberg
[1]
  Conversion (percentage conversion of the ester to 6[2(2-carboxy)-2-thien-3ylacetamid 6methoxy] penicillin): 100.0%

B3: Protease type VIII: Protease type VIII B subtilis, Subtilisin Carlsberg; Subtilopeptidase A, supplier Sigma (protein, UniProt P00780 106-379, looked up)
Subtilisin Carlsberg: B1 Subtilisin Carlsberg
[1]
  Conversion (percentage conversion of the ester to 6[2(2-carboxy)-2-thien-3ylacetamid 6methoxy] penicillin): 89.0%

B4: Subtilisin A: Subtilisin A, B licheniformis, supplier Novo; alkaline microbial serine proteinase EC 3.4.21.14 (protein, UniProt P00780 106-379, looked up)
Subtilisin Carlsberg: B1 Subtilisin Carlsberg
[1]
  Conversion (percentage conversion of the ester to 6[2(2-carboxy)-2-thien-3ylacetamid 6methoxy] penicillin): 88.8%
[2]
  conversion of ester to acid: 88%

B5: Protease Bacterial: Protease Bacterial (Subtilisin A) B Sublitisin, supplier CP (protein, UniProt P00780 106-379, looked up)
Subtilisin Carlsberg: B1 Subtilisin Carlsberg
[1]
  Conversion (percentage conversion of the ester to 6[2(2-carboxy)-2-thien-3ylacetamid 6methoxy] penicillin): 91.7%

B6: Alcalase 0.6 L: Subtilisin A from B licheniformis, supplier Novo (protein, UniProt P00780 106-379, looked up)
Subtilisin Carlsberg: B1 Subtilisin Carlsberg
[1]
  Conversion (percentage conversion of the ester to 6[2(2-carboxy)-2-thien-3ylacetamid 6methoxy] penicillin): 88.0%

B7: Protease type XI: Protease type XI Tritirachium album Proteinase K, supplier Sigma (protein, UniProt P06873 106-384, looked up)
Proteinase K: AAQTNAPWGLARISSTSPGTSTYYYDESAGQGSCVYVIDTGIEASHPEFEGRAQMVKTYYYSSRDGNGHGTHCAGTVGSRTYGVAKKTQLFGVKVLDDNGSGQYSTIIAGMDFVASDKNNRNCPKGVVASLSLGGGYSSSVNSAAARLQSSGVMVAVAAGNNNADARNYSPASEPSVCTVGASDRYDRRSSFSNYGSVLDIFGPGTSILSTWIGGSTRSISGTSMATPHVAGLAAYLMTLGKTTAASACRYIADTANKGDLSNIPFGTVNLLAYNNYQA
[1]
  Conversion (percentage conversion of the ester to 6[2(2-carboxy)-2-thien-3ylacetamid 6methoxy] penicillin): 61.0%

B8: Protease type VII: Protease type VII B amyloliquefaciens, Nagarase; Subtilisin BPN, supplier Sigma (protein, UniProt P00782 108-382, looked up)
Subtilisin BPN': AQSVPYGVSQIKAPALHSQGYTGSNVKVAVIDSGIDSSHPDLKVAGGASMVPSETNPFQDNNSHGTHVAGTVAALNNSIGVLGVAPSASLYAVKVLGADGSGQYSWIINGIEWAIANNMDVINMSLGGPSGSAALKAAVDKAVASGVVVVAAAGNEGTSGSSSTVGYPGKYPSVIAVGAVDSSNQRASFSSVGPELDVMAPGVSIQSTLPGNKYGAYNGTSMASPHVAGAAALILSKHPNWTNTQVRSSLENTTTKLGDSFYYGKGLINVQAAAQ
[1]
  Conversion (percentage conversion of the ester to 6[2(2-carboxy)-2-thien-3ylacetamid 6methoxy] penicillin): 78.0%
